In publication PMC7954794, “Protein context shapes the specificity of SH3 domain-mediated interactions in vivo” (Nature Communications, 2021):

Key:
ABP1 = test: DHFR-PCA on solid medium, bait ABP1 (Fig. 1B); format: cell-based, Saccharomyces cerevisiae; details: bait ABP1, label = prey; 2-4 replicates
Text: Supplement 41467_2021_21873_MOESM8_ESM.xlsx, sheet "Fig1B" | column: medsize; medrep; Ratio; Score

Hua2 = test: Deep mutational scanning of Abp1 SH3, Abp1-Hua2 DHFR-PCA (DMS score); format: cell-based, Saccharomyces cerevisiae; details: for ratio (log2 scale): HUA2_MTX2 (test) vs HUA2_S2 (reference); for ratio (log2 scale) / ratio (log2 scale) mean / frequency (reference condition) / frequency (test condition): amino acid mutation format; for ratio (log2 scale) / frequency (reference condition) / frequency (test condition): replicate 1, Fig. S3A-B; for ratio (log2 scale) mean: condition HUA2_MTX2; for ratio (log2 scale) mean / frequency (reference condition) mean / frequency (test condition) mean / frequency (log2 scale) (reference condition) mean / frequency (log2 scale) (test condition) mean: Fig. S3E; for frequency (reference condition): reference condition HUA2_S2; for frequency (reference condition) mean / frequency (log2 scale) (reference condition) mean: reference condition for HUA2_MTX2; for frequency (test condition) / frequency (test condition) mean / frequency (log2 scale) (test condition) mean: test condition HUA2_MTX2
Description: Single site mutation libraries were generated by a PCR-based saturation mutagenesis method[50] as described below. The mutagenesis was carried out on the pUC19 plasmid containing the SH3 domain sequence of ABP1 flanked by its homology arms subsequently used in the CRISPR mediated genomic re-integration. We used oligos containing degenerate nucleotides (NNN) to carry out the mutagenesis at each codon of the domain sequence. In the first step of the two-step PCR procedure (short PCR step), an amplicon was generated with an oligo containing the degenerate codon which is positioned within the domain sequence, and another oligo lying outside Abp1 sequence in the plasmid. Short PCR step was carried out with the following settings: 5 min at 95 °C, 35 cycles: 20 s at 98 °C, 15 s at 60 °C, 30 s at 72 °C, and a final extension of 1 min at 72 °C. The amplicon generated in this step was used as a mega primer in the second step (long PCR step) to amplify the whole plasmid. Long PCR step was carried out with the following settings: 5 min at 95 °C, 22 cycles: 20 s at 98 °C, 15 s at 68 °C, 3 min 30 s at 72 °C, and a final extension of 5 min at 72 °C. The long PCR product was digested for 2 h at 37 °C with DpnI. The digestion product was then transformed into E. coli MC1061 competent cells. In order to obtain most of the 64 possible codons, we recovered ~1000 colonies from each plate to retrieve the plasmid single mutant libraries. Saturation mutagenesis was carried out in a codon-position-wise manner. Mutants at each position were stored separately. Library quality control was assessed by amplifying the purified plasmid DNA preparations by PCR followed by Illumina sequencing as described below. The genomic insertion of the mutant libraries (one library per amino acid position) was performed by targeting the stuffer sequence in the ABP1 SH3-deleted strain as described in the strain construction section. ABP1 SH3-deleted yeast competent cells were co-transformed with pCAS containing the stuffer-specific gRNA and PCR amplified ABP1 SH3 single position mutated libraries from the pUC19 preparations. As for the library generation, ~1000 colonies from each plate were retrieved. Glycerol stocks of yeast cells were kept for each position (58 different stocks corresponding to the 58 amino acid positions of Abp1 SH3). The stocks were also validated by Illumina sequencing (see below).
Liquid DHFR-PCA experiments were performed following the generation of the ABP1 SH3 single position mutated yeast strains and were performed in biological independent duplicates. An overnight culture was started in YPD + NAT by adding the same number of cells from each yeast mutant strain (master pool). Then, the master pool and Hua2-DHFR F[3] or Lsb3-DHFR F[3] preys strains were mixed in YPD (2:1) for mating and incubated for 8 h at 30 °C. Diploid cells were selected the first time by transferring the mixture in a YPD + NAT + HPH (OD 0.5) culture for 16 h at 30 °C. The next day, the first diploid selection was transferred in SC complete pH 6.0 + NAT + HPH at 0.5 OD and the culture was grown for 24 h at 30 °C. The validation of the yeast mutant libraries was done the next day with a fraction of the diploid cells (first DHFR-PCA experiment time point without PCA selection, reference condition S2) by amplifying ABP1 SH3 genomic sequence followed by Illumina sequencing as described in the section below. Following the selection, diploid cells OD was read using a TECAN Infinite F200 Pro, and dilutions to 0.1 OD in PCA selection media without agar in a 50 mL tube was done. Tubes were incubated at 30 °C for 72 h (second-time point of the DHFR-PCA experiment, first PCA selection). A fraction of the cells (5U OD) was collected for Illumina sequencing. The cells from the first PCA step were grown for a second PCA selection step using the same procedures. […]

B1: YDL146W (protein, UniProt Q12342 1-491, looked up)
Protein LDB17: MILDPLSPNIENHTQDEIIEFWEKTESIANIPKENLDESHVNSSLVAYLKFATDSYKVFINTDRDLYRMSLILLESSLFEFKKEFCLSKLQSLLNIDLLEMNMKFIIVYILLCEAKKNVYSLEIMLKFQGFTVFYNTLYTQFAYLSKYGKERTVASKHQYNSNNSSTGTSLDSLDRSLTDIDLGIIDEMKQISTVLMDLLFQIMKYCKCVIANLQIVDDFFVYYMMESMRSDTMDDMFNNAEFKLLLALNEQYMMFAKEYDIENKVYKYLINGSVSRCFTELLLLKFNRASDPPLQIMMCKIIYLILTPRGDYSPMNFFYTNDLRVLIDVLIRELQNISEDEEVLRNTLLRVLIPLLKNTQLSKTHYRKDDLNKLLNYLSTLDNICVDSPALHEHQVTVALSRKCLQQIPWLETPSTPSDGGSSVSSNNTSRNSSIVALGTPDNQNILARKGHLYSNRELDVSAESLTKRKAKAPPPPPPPPPSRKCGTPK
With B1 the “medrep (log2 median colony size normalized to plate background, PCA score)” value (ABP1) was 3.631.

B2: YFR040W (protein, UniProt P43612 1-1002, looked up)
SIT4-associating protein …: MSFWPFGQNLNHSNINKILDEYFHVLHELERINPSVGKAIPAIFNNVQERGTSDSLDSIPEEYSHGDEVKTARGDQKSRFEKDDQQERYEKEEEERSMNSSESSTTSFSSGSTSKTDLDEEDISNATAPMMVTTKNLDNSFIERMLVETELLNELSRQNKTLLDFICFGFFFDKKTNKKVNNMEYLVDQLMECISKIKTATTVDLNNLIDYQEQQQLDDSSQEDVYVESDTEQEEEKEDDNNSNNKKRRKRGSSSFGNDDINNNDDDDDANEDDESAYLTKATIISEIFSLDIWLISESLVKNQSYLNKIWSIINQPNFNSENSPLVPIFLKINQNLLLTRQDQYLNFIRTERSFVDDMLKHVDISLLMDFFLKIISTDKIESPTGIIELVYDQNLISKCLSFLNNKESPADIQACVGDFLKALIAISANAPLDDISIGPNSLTRQLASPESIAKLVDIMINQRGAALNTTVSIVIELIRKNNSDYDQVNLLTTTIKTHPPSNRDPIYLGYLLRKFSNHLSDFFQIILDIENDANIPLHENQLHEKFKPLGFERFKVVELIAELLHCSNMGLMNSKRAERIARRRDKVRSQLSHHLQDALNDLSIEEKEQLKTKHSPTRDTDHDLKNNNGKIDNDNNDNDDESDYGDEIDESFEIPYINMKQNIKLRTDPTVGDLFKIKLYDTRIVSKIMELFLTHPWNNFWHNVIFDIIQQIFNGRMDFSYNSFLVLSLFNLKSSYQFMTDIVISDEKGTDVSRFSPVIRDPNFDFKITTDFILRGYQDSYKFYELRKMNLGYMGHIVLIAEEVVKFSKLYKVELISPDIQVILQTEEWQYYSEEVLNETRMMYSKILGGGSYIDDGNGNIIPQLPDNTTVLTPNGDASNNNEILDSDTGSSNGTSGGGQLINVESLEEQLSLSTESDLHNKLREMLINRAQEDVDNKNTENGVFILGPPEDKNSNSNINNTNHNSNNSNNNDNNDNNDNDNDNTRNYNEDADNDNDYDHE
With B2 the “medrep (log2 median colony size normalized to plate background, PCA score)” value (ABP1) was 2.847.

B3: ABP1 001 P * (protein, UniProt P15891 2-592, looked up)
Actin-binding protein: ALEPIDYTTHSREIDAEYLKIVRGSDPDTTWLIISPNAKKEYEPESTGSSFHDFLQLFDETKVQYGLARVSPPGSDVEKIIIIGWCPDSAPLKTRASFAANFAAVANNLFKGYHVQVTARDEDDLDENELLMKISNAAGARYSIQTSSKQQGKASTPPVKKSFTPSKSPAPVSKKEPVKTPSPAPAAKISSRVNDNNDDDDWNEPELKERDFDQAPLKPNQSSYKPIGKIDLQKVIAEEKAKEDPRLVQKPTAAGSKIDPSSDIANLKNESKLKRDSEFNSFLGTTKPPSMTESSLKNDDDKVIKGFRNEKSPAQLWAERKAKQNSGNAETKAEAPKPEVPEDEPEGEPDVKDLKSKFEGLAASEKEEEEMENKFAPPPKKSEPTIISPKPFSKPQEPVKAEEAEQPKTDYKKIGNPLPGMHIEADNEEEPEENDDDWDDDEDEAAQPPLPSRNVASGAPVQKEEPEQEEIAPSLPSRNSIPAPKQEEAPEQAPEEEIEEEAEEAAPQLPSRSSAAPPPPPRRATPEKKPKENPWATAEYDYDAAEDNELTFVENDKIINIEFVDDDWWLGELEKDGSKGLFPSNYVSLGN
With B3 the “ratio (log2 scale)” value (Hua2) was -1.421 log2 scale, the “ratio (log2 scale) mean” value (Hua2) was -1.432 log2 scale and the “frequency (reference condition)” value (Hua2) was 0.001041. The “frequency (reference condition) mean” value (Hua2) was 0.0009397, the “frequency (test condition)” value (Hua2) was 5.39E-06 and the “frequency (test condition) mean” value (Hua2) was 2.69E-06.

B4: ABP1 001 P C (protein, UniProt P15891 2-592, looked up)
Actin-binding protein: ALEPIDYTTHSREIDAEYLKIVRGSDPDTTWLIISPNAKKEYEPESTGSSFHDFLQLFDETKVQYGLARVSPPGSDVEKIIIIGWCPDSAPLKTRASFAANFAAVANNLFKGYHVQVTARDEDDLDENELLMKISNAAGARYSIQTSSKQQGKASTPPVKKSFTPSKSPAPVSKKEPVKTPSPAPAAKISSRVNDNNDDDDWNEPELKERDFDQAPLKPNQSSYKPIGKIDLQKVIAEEKAKEDPRLVQKPTAAGSKIDPSSDIANLKNESKLKRDSEFNSFLGTTKPPSMTESSLKNDDDKVIKGFRNEKSPAQLWAERKAKQNSGNAETKAEAPKPEVPEDEPEGEPDVKDLKSKFEGLAASEKEEEEMENKFAPPPKKSEPTIISPKPFSKPQEPVKAEEAEQPKTDYKKIGNPLPGMHIEADNEEEPEENDDDWDDDEDEAAQPPLPSRNVASGAPVQKEEPEQEEIAPSLPSRNSIPAPKQEEAPEQAPEEEIEEEAEEAAPQLPSRSSAAPPPPPRRATPEKKPKENPWATAEYDYDAAEDNELTFVENDKIINIEFVDDDWWLGELEKDGSKGLFPSNYVSLGN
With B4 the “ratio (log2 scale)” value (Hua2) was 2.7124 log2 scale, the “ratio (log2 scale) mean” value (Hua2) was 3.075 log2 scale and the “frequency (reference condition)” value (Hua2) was 0.0005961. For the same molecule, the “frequency (log2 scale) (reference condition) mean” value (Hua2) was -1.441 log2 scale, the “frequency (reference condition) mean” value (Hua2) was 0.0004649 and the “frequency (test condition)” value (Hua2) was 0.001896. For the same molecule, the “frequency (log2 scale) (test condition) mean” value (Hua2) was -1.435 log2 scale and the “frequency (test condition) mean” value (Hua2) was 0.001734.

B5: ABP1 001 P E (protein, UniProt P15891 2-592, looked up)
Actin-binding protein: ALEPIDYTTHSREIDAEYLKIVRGSDPDTTWLIISPNAKKEYEPESTGSSFHDFLQLFDETKVQYGLARVSPPGSDVEKIIIIGWCPDSAPLKTRASFAANFAAVANNLFKGYHVQVTARDEDDLDENELLMKISNAAGARYSIQTSSKQQGKASTPPVKKSFTPSKSPAPVSKKEPVKTPSPAPAAKISSRVNDNNDDDDWNEPELKERDFDQAPLKPNQSSYKPIGKIDLQKVIAEEKAKEDPRLVQKPTAAGSKIDPSSDIANLKNESKLKRDSEFNSFLGTTKPPSMTESSLKNDDDKVIKGFRNEKSPAQLWAERKAKQNSGNAETKAEAPKPEVPEDEPEGEPDVKDLKSKFEGLAASEKEEEEMENKFAPPPKKSEPTIISPKPFSKPQEPVKAEEAEQPKTDYKKIGNPLPGMHIEADNEEEPEENDDDWDDDEDEAAQPPLPSRNVASGAPVQKEEPEQEEIAPSLPSRNSIPAPKQEEAPEQAPEEEIEEEAEEAAPQLPSRSSAAPPPPPRRATPEKKPKENPWATAEYDYDAAEDNELTFVENDKIINIEFVDDDWWLGELEKDGSKGLFPSNYVSLGN
B5 was tested, and the “ratio (log2 scale)” value (Hua2) was 2.627 log2 scale, the “ratio (log2 scale) mean” value (Hua2) was 2.654 log2 scale and the “frequency (reference condition)” value (Hua2) was 0.0007975. The “frequency (log2 scale) (reference condition) mean” value (Hua2) was -1.4398 log2 scale, the “frequency (reference condition) mean” value (Hua2) was 0.0006949 and the “frequency (test condition)” value (Hua2) was 0.002419. The “frequency (log2 scale) (test condition) mean” value (Hua2) was -1.434 log2 scale and the “frequency (test condition) mean” value (Hua2) was 0.002135.
